Source: the RNAGym collection of RNA variant scans (doi:10.7554/elife.90254)

B1: OR4K15 (parent)
chain: GUUAACGGUCAUAGGCCAUGGAAACUAGGAGCACCAUUUCGCUGCCAGUGAAGAAAUGAACAAAGAAAAUCUGGGCCAGGCAGGCAUCAAAAGAAAUAGUCUUGCGCUCAACCAGAAAGUCUGUAAUCAUUUUAAGGGUA

Variants of: B1
Test: self-cleavage, relative activity (ratio to wild type); higher = more cleavage; in vitro, sequencing; the parent is a self-cleaving ribozyme

Variant	self-cleavage
U38A A140U	1.08
A36U U132C	1.2
U38A U130C	1.47
U37C C107U	0.02
A36U G123A	1.73
A36U A94G	1.44
A36G C76U	0.12
U37G A52G	1.48
U39A A67U	2.37
U39A A67G	1.5
U39A A59G	1.6
U38C U102A	1.44
U38C U102C	1.91
A36G A116U	1
U38C A118G	1.14
U37G U132C	0.78
A36U U57C	1.58
U38C C105A	0.05
U38C U130C	1.5
A36G U57G	0.68
A36G U57C	1.27
U38C C88A	1.74
U37G A111G	0.03
U38C C61A	0.99

Variant	self-cleavage
U37C A82G	0.69
U38G A59G	0.9
U38A U43C	1.3
U38A U43A	1.61
U38C U70A	0.58
A36U U100C	2.44
A36U A135C	1.65
A36G G119C	1.4
U39A A68C	1.75
U38A U97C	1.67
U37C U100C	1.67
U37C U100A	0.52
U37C A52G	1.4
U37C A52U	0.57
A36U A86G	1.03
U38C A126G	1.56
U38C U103G	0.03
A36G U132A	1.41
A36G U132C	1.72
U38C A47C	1.99
U38C A47U	0.77
U38C A47G	0.74
U37A A62G	1.37
U38C A67G	1.55

Variant	self-cleavage
U38C A67U	2.33
A36U G83A	1.13
U38C A89C	1.6
U38C A89G	1.9
U38C A89U	2.15
U38C G74A	0.33
U38C A68G	0.84
U37C U57G	0.5
U37C U57A	0.99
U37C C46U	1.33
U37G G138A	1.23
U38A A64G	1.37
U38C U57G	1.4
U38A A89U	2.11
A36U A52G	1.43
U38C A63U	0.76
U38C U49A	1.45
U38C U49C	1.21
U38C A98G	0.96
U38C A98U	1.89
U39A A60G	0.99
U39A A51U	1.74
A36U U120A	2.08
U38G A62U	1.41

Variant	self-cleavage
U38G A62G	1.59
U38C A62G	1.37
A36U U43A	1.85
U37C U87A	1.49
U38C A52C	0.68
U38C A52G	1.53
U38C G41A	1.95
U38C U124C	1.21
A36U U124C	1.26
U38C A90G	1.4
U38C A90C	1.62
U37C U43G	1.46
U37C U43C	2.16
U38C U87C	1.26
U38C U87A	1.6
U38A U87C	1.56
U37A U72C	0.37
U38C U127C	0.66
U38C U127G	1.17
U37C A78G	0.26
U37C A78U	0.32
U37C A78C	0.64
A36G U122C	1.25
A36G U122A	1.66

Variant	self-cleavage
A36U A55G	1.4
U37C U133A	1.34
U37C U133C	1.16
A36G A135G	1.59
U38A A55G	1
U37C A118G	1.36
U37C A66C	1.34
U37C A66G	1.73
A36U A96G	1.74
U38C G75A	0.13
U38C G75C	0.14
U38C A94U	2.15
U38C A94G	0.74
U38A A90U	2.21
U39A A52G	1.21
U38A U100C	2.23
U37C A92U	1.61
A36G U127A	1.87
A36G U127C	1.34
U38C U39A	0.89
U37C A59U	1.91
U37C A59C	1.08
U38C A92U	1.63
U38C A92G	1.97

Variant	self-cleavage
U37C U108C	0.01
U37C U108A	0.04
A36U A68G	1.62
U38C U108C	0.02
U37A A51U	1.05
A36G A140G	1.31
U37C G41U	1.04
U38A A62G	1.19
U37C A129G	0.32
A36U U139A	2.31
U37C A47U	0.63
U38G A114G	0.79
U37C A60G	0.54
U37C C61A	0.78
U38A A78G	0.26
U38A A78U	0.39
U37C A69G	1.17
U38A A66G	1.31
U37C A110C	0.1
U37C G80A	0.21
U37C U103A	0.5
U37C U103G	0.02
U37C U103C	0.32
U37C C76U	0.06

Variant	self-cleavage
U37C A125G	0.68
U37C A140G	1.24
U39A A47U	0.73
A36U A91G	1.42
A36U A91C	1.76
A36U	1.38
U37C A51G	1.49
U37C A51U	1.83
U37C G93U	1.07
A36G G104A	0.07
A36G U108A	0.01
U38C G137A	0.9
U37G A59G	0.71
U37A A90G	0.73
U37C A64G	1.54
U38C C112A	0
U38C C112U	0.02
U37C U122A	1.4
U37A A64G	1.44
A36U A69G	1.56
U38A A92G	1.34
U37C A63G	0.79
U38A A52U	1.64
